Assay results published in paper PMC6509562, “Properties of the HtrA Protease From Bacterium Helicobacter pylori Whose Activity Is Indispensable for Growth Under Stress Conditions” (Frontiers in Microbiology, 2019).

B1: HtrAEcS210A from Escherichia coli (enzyme, UniProt P0C0V0 27-474, looked up)
chain: AETSSATTAQQMPSLAPMLEKVMPSVVSINVEGSTTVNTPRMPRNFQQFFGDDSPFCQEGSPFQSSPFCQGGQGGNGGGQQQKFMALGSGVIIDADKGYVVTNNHVVDNATVIKVQLSDGRKFDAKMVGKDPRSDIALIQIQNPKNLTAIKMADSDALRVGDYTVAIGNPFGLGETVTSGIVSALGRSGLNAENYENFIQTDAAINRGNAGGALVNLNGELIGINTAILAPDGGNIGIGFAIPSNMVKNLTSQMVEYGQVKRGELGIMGTELNSELAKAMKVDAQRGAFVSQVLPNSSAAKAGIKAGDVITSLNGKPISSFAALRAQVGTMPVGSKLTLGLLRDGKQVNVNLELQQSSQNQVDSSSIFNGIEGAEMSNKGKDQGVVVNNVKTGTPAAQIGLKKGDVIIGANQQAVKNIAELRKVLDSKPSVLALNIQRGDSTIYLLMQ
notes: also called DegP S210A; S/A

Experiments:
[1] = target: HtrAHpS221A from H. pylori strain N6 (Helicobacter pylori strain N6) (UniProt B5Z6H5); test: AUC
[2] = target: the molecule itself; test: SEC; Superose 12HR 10/30, 300 mM NaCl, 50 mM Na-phosphate pH 6.5 or 8.0, room temperature; refolded HtrA variant 41 uM without substrate

Molecule	content of peak 1 (6.1 S) at 0.65 mg/ml [1]	content of peak 1 (6.1 S) at 1.6 mg/ml [1]	content of peak 1 (6.1 S) at 3.3 mg/ml [1]	content of peak 2 (8.9 S) at 3.3 mg/ml [1]	content of peak 3 (10.3 S) at 1.6 mg/ml [1]	content of peak 3 (10.6 S) at 3.3 mg/ml [1]	content of peak 3 (11.0 S) at 0.65 mg/ml [1]	content of peak 4 (12.4 S) at 3.3 mg/ml [1]	content of peak 4 (13.0 S) at 1.6 mg/ml [1]	content of peak 5 (15.7 S) at 3.3 mg/ml [1]	content of peak 5 (15.8 S) at 0.65 mg/ml [1]	content of peak 5 (15.8 S) at 1.6 mg/ml [1]	content of peak 6 (19.5 S) at 3.3 mg/ml [1]	content of peak 6 (19.9 S) at 0.65 mg/ml [1]	content of peak 6 (19.9 S) at 1.6 mg/ml [1]	content of peak 7 (22.8 S) at 3.3 mg/ml [1]	content of peak 8 (24.5 S) at 0.65 mg/ml [1]	content of peak 8 (25.6 S) at 1.6 mg/ml [1]	content of peak 8 (25.8 S) at 3.3 mg/ml [1]	stoichiometry N [2]
HtrAHpS221A from H. pylori strain N6 (from UniProt B5Z6H5 1-476) (enzyme)	38%	38%	38%	3.4%	8.8%	5.1%	12%	3.8%	3.2%	9%	8.1%	7.9%	28%	29%	30%	3.1%	4.8%	5.9%	3.6%	
B1																				6
